Test results as given in patent publication US20030203373A1 (priority 2002, published 2003).

Biological target: T1, angiotensin-converting-enzyme derived from pig kidney (pig) (UniProt F1RRW5)
T1 sequence (looked up): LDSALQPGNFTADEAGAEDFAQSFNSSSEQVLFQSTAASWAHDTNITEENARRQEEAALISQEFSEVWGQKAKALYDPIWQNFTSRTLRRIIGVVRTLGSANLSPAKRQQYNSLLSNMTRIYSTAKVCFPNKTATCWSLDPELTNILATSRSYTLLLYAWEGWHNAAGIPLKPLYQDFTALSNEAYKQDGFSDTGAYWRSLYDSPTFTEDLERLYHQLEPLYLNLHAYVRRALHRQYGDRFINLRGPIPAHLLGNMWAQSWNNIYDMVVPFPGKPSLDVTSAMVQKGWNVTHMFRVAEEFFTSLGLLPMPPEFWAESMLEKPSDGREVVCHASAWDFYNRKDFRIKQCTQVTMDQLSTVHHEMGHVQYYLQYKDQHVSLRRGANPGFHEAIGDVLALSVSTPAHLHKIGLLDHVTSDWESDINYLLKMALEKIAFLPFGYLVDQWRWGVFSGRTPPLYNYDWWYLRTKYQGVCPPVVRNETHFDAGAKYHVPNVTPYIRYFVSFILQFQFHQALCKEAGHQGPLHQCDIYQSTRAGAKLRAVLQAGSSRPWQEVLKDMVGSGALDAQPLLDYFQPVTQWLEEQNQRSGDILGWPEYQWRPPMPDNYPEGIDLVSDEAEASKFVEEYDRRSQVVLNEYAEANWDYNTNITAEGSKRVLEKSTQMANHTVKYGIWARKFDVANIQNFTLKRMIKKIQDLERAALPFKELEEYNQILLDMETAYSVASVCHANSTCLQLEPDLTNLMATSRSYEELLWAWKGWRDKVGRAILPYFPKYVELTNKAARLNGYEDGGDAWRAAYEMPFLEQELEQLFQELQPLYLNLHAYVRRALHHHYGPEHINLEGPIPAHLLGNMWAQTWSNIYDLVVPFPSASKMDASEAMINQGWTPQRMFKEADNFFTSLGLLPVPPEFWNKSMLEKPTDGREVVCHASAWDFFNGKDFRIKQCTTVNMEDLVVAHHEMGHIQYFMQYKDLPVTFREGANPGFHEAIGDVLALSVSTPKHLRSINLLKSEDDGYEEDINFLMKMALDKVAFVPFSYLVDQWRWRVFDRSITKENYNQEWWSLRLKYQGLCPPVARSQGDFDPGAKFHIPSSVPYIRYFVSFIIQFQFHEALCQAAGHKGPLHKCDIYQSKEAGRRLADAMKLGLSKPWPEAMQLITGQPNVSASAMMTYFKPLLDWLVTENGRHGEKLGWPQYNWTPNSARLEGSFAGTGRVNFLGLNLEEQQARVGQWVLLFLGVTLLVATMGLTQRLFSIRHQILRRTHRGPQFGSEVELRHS
Experiment: cell-based or functional assay

BPP9a from Bothrops jararaca (peptide)
% inhibition, inhibitor 0.0097 µM, row A: 18% | % inhibition, inhibitor 0.0097 µM, row B: 17.3% | % inhibition, inhibitor 0.0097 µM, row C: 14.8% | % inhibition, inhibitor 0.0097 µM, row D: 7.86% | % inhibition, inhibitor 0.0195 µM, row C: 23% | % inhibition, inhibitor 0.078 µM, row B: 43.5% | % inhibition, inhibitor 0.15625 µM, row B: 63.3% | % inhibition, inhibitor 0.3125 µM, row A: 84% | % inhibition, inhibitor 0.3125 µM, row B: 83.8% | % inhibition, inhibitor 0.625 µM, row A: 94% | % inhibition, inhibitor 0.625 µM, row B: 93.5% | % inhibition, inhibitor 1.25 µM, row B: 97.3% | IC50, ACE inhibition: 97 nM | IC50-value, ACE inhibition (hippuryl-histidyl-leucin substrate): 97 nM | fluorescence, inhibitor 0.0097 µM, row A: 704000 | fluorescence, inhibitor 0.0097 µM, row B: 710000 | fluorescence, inhibitor 0.0097 µM, row C: 732000 | fluorescence, inhibitor 0.0097 µM, row D: 791000 | fluorescence, inhibitor 0.0195 µM, row A: 650000 | fluorescence, inhibitor 0.0195 µM, row B: 652000 | fluorescence, inhibitor 0.0195 µM, row C: 662000 | fluorescence, inhibitor 0.0195 µM, row D: 697000 | fluorescence, inhibitor 0.039 µM, row A: 629000 | fluorescence, inhibitor 0.039 µM, row B: 556000 | fluorescence, inhibitor 0.039 µM, row C: 592000 | fluorescence, inhibitor 0.039 µM, row D: 454000 | fluorescence, inhibitor 0.078 µM, row A: 446000 | fluorescence, inhibitor 0.078 µM, row B: 487000 | fluorescence, inhibitor 0.078 µM, row C: 445000 | fluorescence, inhibitor 0.078 µM, row D: 462000 | fluorescence, inhibitor 0.15625 µM, row A: 309000 | fluorescence, inhibitor 0.15625 µM, row B: 318000 | fluorescence, inhibitor 0.15625 µM, row C: 311000 | fluorescence, inhibitor 0.15625 µM, row D: 262000 | fluorescence, inhibitor 0.3125 µM, row A: 142000 | fluorescence, inhibitor 0.3125 µM, row B: 144000 | fluorescence, inhibitor 0.3125 µM, row C: 148000 | fluorescence, inhibitor 0.3125 µM, row D: 149000 | fluorescence, inhibitor 0.625 µM, row A: 55600 | fluorescence, inhibitor 0.625 µM, row B: 60300 | fluorescence, inhibitor 0.625 µM, row C: 60900 | fluorescence, inhibitor 0.625 µM, row D: 57500 | fluorescence, inhibitor 1.25 µM, row A: 25800 | fluorescence, inhibitor 1.25 µM, row B: 27500 | fluorescence, inhibitor 1.25 µM, row C: 27000 | fluorescence, inhibitor 1.25 µM, row D: 27200 | fluorescence, inhibitor 2.5 µM, row A: 14000 | fluorescence, inhibitor 2.5 µM, row B: 13900 | fluorescence, inhibitor 2.5 µM, row C: 14100 | fluorescence, inhibitor 2.5 µM, row D: 15100 | fluorescence, inhibitor 5 µM, row A: 10600 | fluorescence, inhibitor 5 µM, row B: 9630 | fluorescence, inhibitor 5 µM, row C: 9630 | fluorescence, inhibitor 5 µM, row D: 9660
